Measurements reported in patent US20230103583A1 (NORTHWESTERN UNIVERSITY, published 2023).

Target: Tie2 receptor on HUVEC (human, UniProt Q02763 23-1124)
Experiment: cell-based or functional assay

Tie2 receptor on HUVEC, sequence (Q02763 23-1124): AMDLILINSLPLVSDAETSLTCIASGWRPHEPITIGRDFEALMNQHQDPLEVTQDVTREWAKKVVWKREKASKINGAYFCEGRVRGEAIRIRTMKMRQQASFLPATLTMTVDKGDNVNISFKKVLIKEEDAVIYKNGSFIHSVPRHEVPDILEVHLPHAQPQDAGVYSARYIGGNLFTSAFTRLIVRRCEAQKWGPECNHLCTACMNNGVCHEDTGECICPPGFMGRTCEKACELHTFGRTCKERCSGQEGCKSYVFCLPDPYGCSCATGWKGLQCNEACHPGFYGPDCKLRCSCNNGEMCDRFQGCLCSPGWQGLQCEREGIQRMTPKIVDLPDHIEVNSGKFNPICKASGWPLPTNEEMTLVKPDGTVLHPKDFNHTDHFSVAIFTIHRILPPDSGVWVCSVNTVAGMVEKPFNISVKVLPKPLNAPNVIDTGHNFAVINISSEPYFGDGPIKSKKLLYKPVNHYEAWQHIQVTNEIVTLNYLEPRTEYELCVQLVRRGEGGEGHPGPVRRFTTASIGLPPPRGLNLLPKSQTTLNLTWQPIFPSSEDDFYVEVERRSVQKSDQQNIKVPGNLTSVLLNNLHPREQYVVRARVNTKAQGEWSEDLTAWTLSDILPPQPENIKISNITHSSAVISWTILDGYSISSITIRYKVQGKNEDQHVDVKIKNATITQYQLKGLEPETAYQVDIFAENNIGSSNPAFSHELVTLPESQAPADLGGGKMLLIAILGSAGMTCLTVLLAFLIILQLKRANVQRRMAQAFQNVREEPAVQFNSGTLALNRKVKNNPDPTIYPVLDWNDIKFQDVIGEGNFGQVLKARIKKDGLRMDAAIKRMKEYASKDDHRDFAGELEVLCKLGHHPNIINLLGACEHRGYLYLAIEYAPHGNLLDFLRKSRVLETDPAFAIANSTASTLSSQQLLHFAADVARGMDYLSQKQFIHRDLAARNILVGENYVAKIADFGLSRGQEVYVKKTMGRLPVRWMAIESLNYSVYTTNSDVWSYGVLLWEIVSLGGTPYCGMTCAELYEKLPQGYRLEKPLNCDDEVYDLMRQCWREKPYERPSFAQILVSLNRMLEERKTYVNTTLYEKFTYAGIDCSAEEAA

B1: ANG1-C4BP (ligand)
chain: KPFRDCADVYQAGFNKSGIYTIYINNMPEPKKVFCNMDVNGGGWTVIQHREDGSLDFQRGWKEYKMGFGNPSGEYWLGNEFIFAITSQRQYMLRIELMDWEGNRAYSQYDRFHIGNEKQNYRLYLKGHTGTAGKQSSLILHGADFSTKDADNDNCMCKCALMLTGGWWFDACGPSNLNGMFYTAGQNHGKLNGIKWHYFKGPSYSLRSTTMMIRPLDFGGGGSETPEGCEQVLTGKRLMQCLPNPEDVKMALEVYKLSLEIEQLELQRDSARQSTLDKELHHHHHH
In the case of B1, the “phospho-AKT (pAKT) EC50 in HUVEC treated for 20 minutes” value is reported as 87 ng/mL.
